In the supplement of paper PMC12764529:

Assay: folding stability dG unfold (combined trypsin and chymotrypsin); higher = more stable
Method: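 Folding stability of de novo designed mini-proteins (<80 aa, no Cys; designed by TrROS, TrMRF, ProteinMPNN and the joint model) was measured by cDNA display proteolysis with trypsin and chymotrypsin. Each protease was used at 11 concentrations in a threefold dilution series plus a no-protease condition. K50 was inferred by Bayesian fitting of sequencing counts, and dG unfold was derived against a sequence-predicted unfolded-state K50 (Tsuboyama et al. method). Sequences shown include variable-length N-terminal GS-type padding (SAGGSAGG...) inside a display construct carrying a PA tag. Rows were kept only if the AF2 dimer inter-PAE was >15, to exclude likely homo-oligomers.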

| Sequence | folding stability dG unfold |
| --- | --- |
| SAGGSAGGMELVTLPVVTTEEVPVPPVTKTLPNGTRETVPQPPVTVVRETVLLTTPEEAAALLRSAGGSAGG [r6_120_JUSTAS] | < -4.18 kJ/mol |
| SAGGSAGGMKKEKFGDSIRYTFPVDPNTSVEEIKKEIEKIPGVKDISKVKITPSPSNKLLVYVKSAGGSAGG [r6_516_JUSTAS] | < -4.18 kJ/mol |
| SAGGSAGGMKVTFDDGVEETLNLTEEEAKAWAESRPDRKMTRIEKEPPEKLSPENLTPEAIKLKSAGGSAGG [r6_881_JUSTAS] | < -4.18 kJ/mol |
| SAGGSAGGMPESAPPVPLPTSTVPLSEARAAGIEVPPGSERVIRTPSGVTYRISSATGTVTVVGSAGGSAGG [r6_275_JUSTAS] | < -4.18 kJ/mol |
| SAGGSAGGMPPDTYVTEVVTTTSNVLGGKDIFRTIVKTTKILPVIEHPAGDGFTLVPPDTPGLESAGGSAGG [r6_405_JUSTAS] | < -4.18 kJ/mol |
| SAGGSAGGPRRISLMYKFSPDDGEMEPPSIEDLAKKFFPGAEPKNIDIEHNPNNGYMQVEIPIKSAGGSAGG [r6_81_TrROS] | < -4.18 kJ/mol |
| SAGGSAGGSAAPKPVTVEKTIKVPGNDPEKVKKELEPKGWKVLGVDKNTVKAKITLPPGYKKSAGGSAGGSA [r18_168_JUSTAS] | < -4.18 kJ/mol |
| SAGGSAGGSADPQKVKEIAEKLQEKGYTVDVDRGPDSWTIRVENPKSGGKKKHKIDDPEDVLSAGGSAGGSA [r18_278_TrROS] | < -4.18 kJ/mol |
| SAGGSAGGSAGDIDIKVEYNKENGMYRVRASFPDGKEVPIWMPPGQTPEEAKDQAKELLKSAGGSAGGSAGG [r17_161_TrROS] | < -4.18 kJ/mol |
| SAGGSAGGSAGDLPPGKEIEIMMSTPEWADEFADNFPNAKIKIEPMPPKPKYDPETGKGYSAGGSAGGSAGG [r17_126_TrROS] | < -4.18 kJ/mol |
| SAGGSAGGSAGEIEIEFEPGEEFLDFIKNLPGPIESIEIEPIDPDKVRARLKLNIPEDLASAGGSAGGSAGG [r11_143_TrMRF] | < -4.18 kJ/mol |
| SAGGSAGGSAGEPGFTVRVLKKDLPTGEFSEVEIEVPASVPLEEVIEALDPDQVVAVEVESAGGSAGGSAGG [r11_386_TrMRF] | < -4.18 kJ/mol |
| SAGGSAGGSAGEPIPFRIKVELPGNGREQEIDFPIKTPSEANEIANQLPPGFKRVKIEWYSAGGSAGGSAGG [r11_25_TrROS] | < -4.18 kJ/mol |
| SAGGSAGGSAGERYYMVEIQPKNGRRIKIMIPDDPEKAVKKARELFPDYEVEVEPMKKPPSAGGSAGGSAGG [r11_850_TrROS] | < -4.18 kJ/mol |
| SAGGSAGGSAGGADVPVAELEARGLGREALIAELGEDVTVTTEEHAPGAPVYRLTPLASSAGGSAGGSAGGS [r10_855_JUSTAS] | < -4.18 kJ/mol |
| SAGGSAGGSAGGALLLFEEGRRLRYETPEEAEELAAAVRAESGRPDLRISLRELSPEELPSAGGSAGGSAGG [r7_839_JUSTAS] | < -4.18 kJ/mol |
| SAGGSAGGSAGGDLEIHIPPGMDPAQADNFAKMFGLKNIKIEPVPPVKPRVYTKNGEPDSAGGSAGGSAGGS [r10_1083_TrROS] | < -4.18 kJ/mol |
| SAGGSAGGSAGGDNIMIKIRNPGKPRTFMIKDPEQLKNMSLKELADELVDKHGWPVEIYPSAGGSAGGSAGG [r7_259_TrROS] | < -4.18 kJ/mol |
| SAGGSAGGSAGGFKIEGNPMPDDDGPYWHIEVTHWRYNGGGPRPRKRTIMIKDPEDAKEFSAGGSAGGSAGG [r7_896_TrROS] | < -4.18 kJ/mol |
| SAGGSAGGSAGGFVGTLKDYPKILKAAKEVGLKVGKIDPKNNKIYVDPSNPEKLKKAIESSAGGSAGGSAGG [r7_285_TrMRF] | < -4.18 kJ/mol |
| SAGGSAGGSAGGGGKKKREISIMFEGGTPSDFKREAREIANSPENKDNVDEVEITMMPGSAGGSAGGSAGGS [r10_351_TrROS] | < -4.18 kJ/mol |

| Sequence | folding stability dG unfold |
| --- | --- |
| SAGGSAGGSAGGGLDDVPEEELRKILEEHGLPPEEVPPDTEVTLELPEGKPIKVRMTGRSAGGSAGGSAGGS [r10_623_JUSTAS] | < -4.18 kJ/mol |
| SAGGSAGGSAGGGYRLVTTTERRTLVYREYDPTTDRFRPVKPVPTTIETTLLAPEDELLSAGGSAGGSAGGS [r10_610_JUSTAS] | < -4.18 kJ/mol |
| SAGGSAGGSAGGKITEVDTSNNMVEITLKHPGGKRERPIDPGKTMAQILDELKENPDLVISAGGSAGGSAGG [r7_373_TrROS] | < -4.18 kJ/mol |
| SAGGSAGGSAGGKKIKIVKVEPGKVKFSLGKKGKNIPGFEKEVKVEVYEIETDLEPLLNSAGGSAGGSAGGS [r10_654_TrMRF] | < -4.18 kJ/mol |
| SAGGSAGGSAGGKKQTLVIRSDNKPIPIEYDDDNIKISNPNGKKQEIPPEDLPPDGIEPVSAGGSAGGSAGG [r7_748_TrROS] | < -4.18 kJ/mol |
| SAGGSAGGSAGGKLRIFYPNPWQARWRAKTIQNEMMDNGYKIPPNVEIEIHPMRPDPGDWSAGGSAGGSAGG [r7_965_TrROS] | < -4.18 kJ/mol |
| SAGGSAGGSAGGKRHRIDNIEPFNNDGEKLYRIRMPGGKEQRFPVGEEFTPNGAEIEPLPSAGGSAGGSAGG [r7_931_TrROS] | < -4.18 kJ/mol |
| SAGGSAGGSAGGMKVIPIYSPGKGSKEEIIELVKKKNPNVKKVEVTYNPEEDVATVTIESAGGSAGGSAGGS [r10_225_JUSTAS] | < -4.18 kJ/mol |
| SAGGSAGGSAGGMPVSFEELKKLPPNTVLIFSDGTVVTAPEEEVKKPFGKEKIVYVEEKPSAGGSAGGSAGG [r7_643_JUSTAS] | < -4.18 kJ/mol |
| SAGGSAGGSAGGMTIRVVPVEITPDSSGVLRRDIEEVAAANPDAEVLETTPTSVLVRYKRSAGGSAGGSAGG [r11_771_JUSTAS] | < -4.18 kJ/mol |
| SAGGSAGGSAGGPELGEIEPGPDGYLYVNLKVELPVELPGPDGKGTGPVEGTVRLKVGLSAGGSAGGSAGGS [r10_92_TrMRF] | < -4.18 kJ/mol |
| SAGGSAGGSAGGPEWKEIDIPFDTPEDAIDEAEDKLPPDDKIDVHNPDDGQPITFTVPRNSAGGSAGGSAGG [r7_877_TrROS] | < -4.18 kJ/mol |
| SAGGSAGGSAGGPIKVETEPYPDGYHRVEIMLPGNGQKKEIHFPNGQTPEQAKDWIKEWSAGGSAGGSAGGS [r10_825_TrROS] | < -4.18 kJ/mol |
| SAGGSAGGSAGGPKEIPIKIKIYPPNGRKRERPVPLKSEEQALDQLQEAMPPGWFIEIWSAGGSAGGSAGGS [r10_145_TrROS] | < -4.18 kJ/mol |
| SAGGSAGGSAGGPPIPIRIKLEHPDNGKKHTHEFPPGMSLKEVKNYMEKHPGYKIKDIEISAGGSAGGSAGG [r7_624_TrROS] | < -4.18 kJ/mol |
| SAGGSAGGSAGGPPPSLPYELDKKVIEKLVKYPEDKLKPVEIKEIETSLFNPLTGTWLDSAGGSAGGSAGGS [r10_248_JUSTAS] | < -4.18 kJ/mol |
| SAGGSAGGSAGGPPVPYKIKSPNGRPFPVQINPDSGQIEIEFPGETRKIPLGMNWEIEPVSAGGSAGGSAGG [r7_434_TrROS] | < -4.18 kJ/mol |
| SAGGSAGGSAGGPRVTGTPVPGDDEPLLVVEREYTVEVGGGPRPVRVRFVFDHPDEALRSSAGGSAGGSAGG [r7_896_TrMRF] | < -4.18 kJ/mol |
| SAGGSAGGSAGGQIRDPDGRKWIRVKGASPNKIKDELSELNPNVEIITNPDPNEMWIRIPSAGGSAGGSAGG [r7_370_TrROS] | < -4.18 kJ/mol |
| SAGGSAGGSAGGRVKKDVTVRYRLTVRNPVTGKTTERTLTVHVPVLVDEEAELPPLSEVSAGGSAGGSAGGS [r10_1026_TrMRF] | < -4.18 kJ/mol |
